# *1 amine or outer side, *2 acyl side, *3 side chain or, on linkers, in order; H or OH if unused. Bridges are numbered along the chain shown (N, C = ends). [ ]: non-standard residue; d: D form. The star is where a group is joined. DOTA = O=C(O)CN1CCN(CC(=O)O)CCN(CC(=O)*)CCN(CC(=O)O)CC1; N(2-mercaptoethyl)Gly = O=C(CN(CCS[*:3])[*:1])[*:2]
# B1: SEQ ID NO: 4 (peptide)
# peptide: {DOTA}-[dF]RCF[dW]KTF[N(2-mercaptoethyl)Gly]-NH2
# modifications: disulfide 3-9; also: Ga complex of DOTA
# Columns and labels:
# Experiment in all cases: cell-based or functional assay
# [1] = target: (CR)L-RAMP1 (human) (UniProt Q16602)
# [2] = target: (CR)L-RAMP2 (human) (UniProt Q16602)
# [3] = target: (CR)R-RAMP2 (human) (UniProt P30988)
# [4] = target: ADRA1B (human) (UniProt P35368)
# [5] = target: ADRA2C (human) (UniProt P18825)
# [6] = target: ADRB1 (human) (UniProt P08588)
# [7] = target: ADRB2 (human) (UniProt P07550)
# [8] = target: AVPR1A (human) (UniProt P37288)
# [9] = target: BRS3 (human) (UniProt P32247)
# [10] = target: CALCR (CR) (human) (UniProt P30988)
# [11] = target: CCR5 (human) (UniProt P51681)
# [12] = target: CCR6 (human) (UniProt P51684)
# [13] = target: CCR7 (human) (UniProt P32248)
# [14] = target: CHRM2 (human) (UniProt P08172)
# [15] = target: CHRM3 (human) (UniProt P20309)
# [16] = target: CHRM4 (human) (UniProt P08173)
# [17] = target: CMKLR1 (human) (UniProt Q99788)
# [18] = target: CNR1 (human) (UniProt P21554)
# [19] = target: CRHR2 (human) (UniProt Q13324)
# [20] = target: CX3CR1 (human) (UniProt P49238)
# [21] = target: CXCR2 (human) (UniProt P25025)
# [22] = target: CXCR3 (human) (UniProt P49682)
# [23] = target: CXCR4 (human) (UniProt P61073)
# [24] = target: DRD1 (human) (UniProt P21728)
# [25] = target: DRD4 (human) (UniProt P21917)
# [26] = target: DRD5 (human) (UniProt P21918)
# [27] = target: EBI2 (human) (UniProt P32249)
# [28] = target: EDG6 (human) (UniProt O95977)
# [29] = target: EDNRB (human) (UniProt P24530)
# [30] = target: GALR1 (human) (UniProt P47211)
# [31] = target: GPR1 (human) (UniProt P46091)
# [32] = target: GPR119 (human) (UniProt Q8TDV5)
# [33] = target: GPR120 (human) (UniProt Q5NUL3)
# [34] = target: GPR92 (human) (UniProt Q9H1C0)
# [35] = target: HRH2 (human) (UniProt P25021)
# [36] = target: HTR1B (human) (UniProt P28222)
# [37] = target: MCHR1 (human) (UniProt Q99705)
# [38] = target: MLNR (human) (UniProt O43193)
# [39] = target: MRGPRX2 (human) (UniProt Q96LB1)
# [40] = target: NMBR (human) (UniProt P28336)
# [41] = target: NPFFR1 (human) (UniProt Q9GZQ6)
# [42] = target: NPSR1b (human) (UniProt Q6W5P4)
# [43] = target: NPY1R (human) (UniProt P25929)
# [44] = target: OXTR (human) (UniProt P30559)
# [45] = target: P2RY12 (human) (UniProt Q9H244)
# [46] = target: P2RY4 (human) (UniProt P51582)
# [47] = target: PROKR1 (human) (UniProt Q8TCW9)
# [48] = target: PTGFR (human) (UniProt P43088)
# [49] = target: PTGIR (human) (UniProt P43119)
# [50] = target: SCTR (human) (UniProt P47872)
# [51] = target: TACR2 (human) (UniProt P21452)
# [52] = target: TACR3 (human) (UniProt P29371)
# [53] = target: TRHR (human) (UniProt P34981)
# [54] = target: UTR2 (human) (UniProt Q9UKP6)
# [55] = target: VIPR1 (human) (UniProt P32241)
# [56] = target: human cloned somatostatin receptor 1 (human) (UniProt P30872)
# [57] = target: human cloned somatostatin receptor 2 (human) (UniProt P30874)
# [58] = target: human cloned somatostatin receptor 3 (human) (UniProt P32745)
# Chain of human cloned somatostatin receptor 3 (human) (P32745 whole entry): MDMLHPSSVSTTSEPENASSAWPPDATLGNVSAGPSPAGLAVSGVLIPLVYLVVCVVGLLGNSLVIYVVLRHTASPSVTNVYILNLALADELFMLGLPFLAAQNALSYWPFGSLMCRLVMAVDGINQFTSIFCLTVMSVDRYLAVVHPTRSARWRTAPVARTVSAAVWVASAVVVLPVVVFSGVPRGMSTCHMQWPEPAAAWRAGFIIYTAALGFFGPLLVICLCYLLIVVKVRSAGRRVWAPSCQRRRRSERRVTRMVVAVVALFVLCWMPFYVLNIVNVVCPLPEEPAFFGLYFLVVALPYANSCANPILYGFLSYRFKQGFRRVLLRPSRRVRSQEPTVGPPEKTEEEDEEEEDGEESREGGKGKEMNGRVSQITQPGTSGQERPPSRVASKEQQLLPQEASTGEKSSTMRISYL
# Chain of UTR2 (human) (Q9UKP6 whole entry): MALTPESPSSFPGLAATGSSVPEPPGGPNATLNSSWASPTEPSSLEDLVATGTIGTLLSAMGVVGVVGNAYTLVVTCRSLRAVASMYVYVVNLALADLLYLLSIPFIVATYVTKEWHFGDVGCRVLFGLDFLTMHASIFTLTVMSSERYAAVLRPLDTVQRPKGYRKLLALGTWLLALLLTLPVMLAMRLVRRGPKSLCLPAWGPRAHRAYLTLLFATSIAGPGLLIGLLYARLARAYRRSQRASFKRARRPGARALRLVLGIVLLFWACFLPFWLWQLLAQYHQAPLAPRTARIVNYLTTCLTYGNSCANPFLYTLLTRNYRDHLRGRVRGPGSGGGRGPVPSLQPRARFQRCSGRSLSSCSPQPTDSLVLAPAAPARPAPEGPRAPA
# Chain of CHRM4 (human) (P08173 whole entry): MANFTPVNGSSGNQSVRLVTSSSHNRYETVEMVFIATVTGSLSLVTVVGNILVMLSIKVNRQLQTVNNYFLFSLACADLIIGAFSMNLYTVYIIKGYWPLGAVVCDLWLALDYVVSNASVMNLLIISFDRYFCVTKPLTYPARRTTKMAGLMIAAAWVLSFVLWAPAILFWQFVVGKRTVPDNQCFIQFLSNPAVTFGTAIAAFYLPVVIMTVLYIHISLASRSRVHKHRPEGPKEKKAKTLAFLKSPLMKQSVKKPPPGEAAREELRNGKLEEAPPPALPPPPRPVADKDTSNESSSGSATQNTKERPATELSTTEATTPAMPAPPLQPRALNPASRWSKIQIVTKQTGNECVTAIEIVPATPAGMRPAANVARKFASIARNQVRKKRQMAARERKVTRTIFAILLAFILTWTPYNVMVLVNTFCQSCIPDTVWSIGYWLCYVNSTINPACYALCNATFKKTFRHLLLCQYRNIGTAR
# Chain of CCR7 (human) (P32248 25-378): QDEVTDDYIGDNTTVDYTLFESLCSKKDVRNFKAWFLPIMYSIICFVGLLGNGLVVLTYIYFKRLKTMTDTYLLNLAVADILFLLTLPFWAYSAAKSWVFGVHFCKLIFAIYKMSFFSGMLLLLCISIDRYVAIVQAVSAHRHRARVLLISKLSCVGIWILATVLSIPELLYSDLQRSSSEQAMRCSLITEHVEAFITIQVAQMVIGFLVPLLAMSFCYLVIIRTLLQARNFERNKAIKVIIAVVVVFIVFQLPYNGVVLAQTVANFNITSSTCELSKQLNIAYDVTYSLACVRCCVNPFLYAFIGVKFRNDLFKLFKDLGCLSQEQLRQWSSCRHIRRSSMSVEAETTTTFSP
# Chain of VIPR1 (human) (P32241 31-457): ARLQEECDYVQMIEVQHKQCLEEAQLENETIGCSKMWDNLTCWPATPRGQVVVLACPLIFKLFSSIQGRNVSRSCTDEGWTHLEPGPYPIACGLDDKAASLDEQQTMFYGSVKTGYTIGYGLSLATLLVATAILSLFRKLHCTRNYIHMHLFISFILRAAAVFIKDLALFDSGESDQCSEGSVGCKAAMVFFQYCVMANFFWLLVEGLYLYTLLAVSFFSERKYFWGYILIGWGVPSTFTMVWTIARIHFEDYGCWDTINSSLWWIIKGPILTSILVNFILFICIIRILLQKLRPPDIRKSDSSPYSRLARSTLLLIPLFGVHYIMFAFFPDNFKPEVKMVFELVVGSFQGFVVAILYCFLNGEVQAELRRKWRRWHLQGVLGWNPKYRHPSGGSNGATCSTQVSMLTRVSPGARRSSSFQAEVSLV
# Chain of NPFFR1 (human) (Q9GZQ6 whole entry): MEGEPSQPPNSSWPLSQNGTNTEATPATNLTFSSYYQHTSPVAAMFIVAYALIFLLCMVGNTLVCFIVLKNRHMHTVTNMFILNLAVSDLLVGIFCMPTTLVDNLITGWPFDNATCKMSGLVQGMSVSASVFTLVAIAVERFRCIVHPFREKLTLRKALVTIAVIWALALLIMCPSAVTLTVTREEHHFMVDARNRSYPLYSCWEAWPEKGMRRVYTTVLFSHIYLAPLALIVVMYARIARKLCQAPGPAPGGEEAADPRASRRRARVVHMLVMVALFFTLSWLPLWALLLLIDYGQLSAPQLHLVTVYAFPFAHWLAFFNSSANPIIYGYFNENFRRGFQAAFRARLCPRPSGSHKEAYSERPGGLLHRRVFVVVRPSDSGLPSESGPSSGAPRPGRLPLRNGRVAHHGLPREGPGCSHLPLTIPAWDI
# Chain of HRH2 (human) (P25021 whole entry): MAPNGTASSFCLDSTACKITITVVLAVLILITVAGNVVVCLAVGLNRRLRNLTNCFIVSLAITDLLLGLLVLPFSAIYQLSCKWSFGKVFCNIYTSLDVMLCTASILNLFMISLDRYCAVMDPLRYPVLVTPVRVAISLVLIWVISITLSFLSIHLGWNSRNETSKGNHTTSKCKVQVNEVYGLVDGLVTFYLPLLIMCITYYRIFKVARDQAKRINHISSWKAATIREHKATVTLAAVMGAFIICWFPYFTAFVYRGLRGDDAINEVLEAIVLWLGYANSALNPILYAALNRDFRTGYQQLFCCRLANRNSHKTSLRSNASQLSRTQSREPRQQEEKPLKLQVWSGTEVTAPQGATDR
# Chain of ADRA1B (human) (P35368 whole entry): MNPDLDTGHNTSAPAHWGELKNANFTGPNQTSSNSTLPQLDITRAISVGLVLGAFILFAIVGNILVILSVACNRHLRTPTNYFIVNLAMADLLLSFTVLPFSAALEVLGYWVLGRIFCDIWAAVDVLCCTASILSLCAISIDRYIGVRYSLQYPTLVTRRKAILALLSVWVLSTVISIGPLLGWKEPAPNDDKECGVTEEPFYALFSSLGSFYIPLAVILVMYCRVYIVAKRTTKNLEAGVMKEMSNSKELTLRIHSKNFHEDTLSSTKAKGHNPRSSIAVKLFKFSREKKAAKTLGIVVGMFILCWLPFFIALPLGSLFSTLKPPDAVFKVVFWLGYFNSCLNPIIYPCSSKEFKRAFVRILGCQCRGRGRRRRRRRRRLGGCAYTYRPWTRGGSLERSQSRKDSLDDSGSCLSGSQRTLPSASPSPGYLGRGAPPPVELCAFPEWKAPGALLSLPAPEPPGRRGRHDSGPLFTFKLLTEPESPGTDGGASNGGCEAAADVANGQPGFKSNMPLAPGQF
# Chain of CXCR3 (human) (P49682 whole entry): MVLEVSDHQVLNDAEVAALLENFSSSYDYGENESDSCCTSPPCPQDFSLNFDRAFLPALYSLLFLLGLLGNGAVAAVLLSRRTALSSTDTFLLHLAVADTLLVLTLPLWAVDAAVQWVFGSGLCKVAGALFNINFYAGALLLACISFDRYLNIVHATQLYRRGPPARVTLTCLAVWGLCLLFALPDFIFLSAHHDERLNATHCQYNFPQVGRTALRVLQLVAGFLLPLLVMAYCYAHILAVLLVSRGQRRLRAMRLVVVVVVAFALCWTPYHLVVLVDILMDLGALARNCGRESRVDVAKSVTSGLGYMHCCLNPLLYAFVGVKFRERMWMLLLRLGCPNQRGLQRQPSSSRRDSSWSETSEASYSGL
# Chain of DRD1 (human) (P21728 whole entry): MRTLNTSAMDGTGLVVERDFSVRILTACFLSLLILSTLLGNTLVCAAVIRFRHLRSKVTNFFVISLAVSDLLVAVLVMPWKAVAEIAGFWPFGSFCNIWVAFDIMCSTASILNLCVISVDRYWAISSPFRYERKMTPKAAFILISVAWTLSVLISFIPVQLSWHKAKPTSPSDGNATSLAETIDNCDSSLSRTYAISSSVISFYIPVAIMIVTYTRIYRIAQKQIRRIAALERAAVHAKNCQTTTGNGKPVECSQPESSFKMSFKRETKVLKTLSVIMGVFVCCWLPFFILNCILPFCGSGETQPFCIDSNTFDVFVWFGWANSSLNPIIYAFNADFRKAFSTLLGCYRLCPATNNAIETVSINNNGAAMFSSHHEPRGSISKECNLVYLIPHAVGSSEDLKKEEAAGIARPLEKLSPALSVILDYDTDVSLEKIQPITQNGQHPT
# Chain of DRD4 (human) (P21917 whole entry): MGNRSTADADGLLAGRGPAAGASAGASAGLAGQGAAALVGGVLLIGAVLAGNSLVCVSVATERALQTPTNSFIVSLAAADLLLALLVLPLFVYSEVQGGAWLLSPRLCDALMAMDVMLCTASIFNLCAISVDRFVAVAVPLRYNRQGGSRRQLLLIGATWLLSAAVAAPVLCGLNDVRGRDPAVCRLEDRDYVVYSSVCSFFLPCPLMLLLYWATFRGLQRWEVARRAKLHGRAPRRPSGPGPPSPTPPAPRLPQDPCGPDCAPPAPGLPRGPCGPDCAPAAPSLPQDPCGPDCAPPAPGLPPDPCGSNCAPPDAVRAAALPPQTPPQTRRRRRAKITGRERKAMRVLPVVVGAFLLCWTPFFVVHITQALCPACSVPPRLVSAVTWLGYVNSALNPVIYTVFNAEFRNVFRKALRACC
# Chain of GPR119 (human) (Q8TDV5 whole entry): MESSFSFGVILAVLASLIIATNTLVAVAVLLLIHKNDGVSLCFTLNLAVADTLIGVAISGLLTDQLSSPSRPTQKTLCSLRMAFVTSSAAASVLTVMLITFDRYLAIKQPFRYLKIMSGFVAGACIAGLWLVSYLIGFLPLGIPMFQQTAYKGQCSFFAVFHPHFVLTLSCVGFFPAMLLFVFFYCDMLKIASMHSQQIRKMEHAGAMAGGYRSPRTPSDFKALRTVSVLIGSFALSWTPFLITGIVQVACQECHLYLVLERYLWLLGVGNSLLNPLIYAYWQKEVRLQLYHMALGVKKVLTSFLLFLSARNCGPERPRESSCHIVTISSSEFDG
binder,measurement,setting,value
B1,"% Activity (agonist mode, 1 µM)",[1],-1%
same,"% Activity (agonist mode, 1 µM)",[2],3%
same,"% Activity (agonist mode, 1 µM)",[3],0%
same,"% Activity (agonist mode, 1 µM)",[4],-2%
same,"% Activity (agonist mode, 1 µM)",[5],-8%
same,"% Activity (agonist mode, 1 µM)",[6],1%
same,"% Activity (agonist mode, 1 µM)",[7],0%
same,"% Activity (agonist mode, 1 µM)",[8],0%
same,"% Activity (agonist mode, 1 µM)",[9],1%
same,"% Activity (agonist mode, 1 µM)",[10],0%
same,"% Activity (agonist mode, 1 µM)",[11],1%
same,"% Activity (agonist mode, 1 µM)",[12],0%
same,"% Activity (agonist mode, 1 µM)",[13],1%
same,"% Activity (agonist mode, 1 µM)",[14],0%
same,"% Activity (agonist mode, 1 µM)",[15],1%
same,"% Activity (agonist mode, 1 µM)",[16],-3%
same,"% Activity (agonist mode, 1 µM)",[17],0%
same,"% Activity (agonist mode, 1 µM)",[18],-1%
same,"% Activity (agonist mode, 1 µM)",[19],0%
same,"% Activity (agonist mode, 1 µM)",[20],0%
same,"% Activity (agonist mode, 1 µM)",[21],-1%
same,"% Activity (agonist mode, 1 µM)",[22],-1%
same,"% Activity (agonist mode, 1 µM)",[23],3%
same,"% Activity (agonist mode, 1 µM)",[24],0%
same,"% Activity (agonist mode, 1 µM)",[25],0%
same,"% Activity (agonist mode, 1 µM)",[26],-2%
same,"% Activity (agonist mode, 1 µM)",[27],-1%
same,"% Activity (agonist mode, 1 µM)",[28],10%
same,"% Activity (agonist mode, 1 µM)",[29],0%
same,"% Activity (agonist mode, 1 µM)",[30],2%
same,"% Activity (agonist mode, 1 µM)",[31],0%
same,"% Activity (agonist mode, 1 µM)",[32],19%
same,"% Activity (agonist mode, 1 µM)",[33],-4%
same,"% Activity (agonist mode, 1 µM)",[34],1%
same,"% Activity (agonist mode, 1 µM)",[35],-4%
same,"% Activity (agonist mode, 1 µM)",[36],-1%
same,"% Activity (agonist mode, 1 µM)",[37],-1%
same,"% Activity (agonist mode, 1 µM)",[38],1%
same,"% Activity (agonist mode, 1 µM)",[39],1%
same,"% Activity (agonist mode, 1 µM)",[40],1%
same,"% Activity (agonist mode, 1 µM)",[41],-2%
same,"% Activity (agonist mode, 1 µM)",[42],-1%
same,"% Activity (agonist mode, 1 µM)",[43],-5%
same,"% Activity (agonist mode, 1 µM)",[44],0%
same,"% Activity (agonist mode, 1 µM)",[45],1%
same,"% Activity (agonist mode, 1 µM)",[46],1%
same,"% Activity (agonist mode, 1 µM)",[47],0%
same,"% Activity (agonist mode, 1 µM)",[48],0%
same,"% Activity (agonist mode, 1 µM)",[49],0%
same,"% Activity (agonist mode, 1 µM)",[50],0%
same,"% Activity (agonist mode, 1 µM)",[51],-1%
same,"% Activity (agonist mode, 1 µM)",[52],1%
same,"% Activity (agonist mode, 1 µM)",[53],3%
same,"% Activity (agonist mode, 1 µM)",[54],0%
same,"% Activity (agonist mode, 1 µM)",[55],0%
same,"% Activity (agonist mode, 1 µM)",[56],32%
same,"% Activity (agonist mode, 1 µM)",[57],9%
same,"% Activity (agonist mode, 1 µM)",[58],200%
same,Cellular Internalization EC50 (β-Arrestin Luminescence Assay),[58],16 nM
same,Efficacy - maximal response,[58],75200 RLU
same,intensity of beta-arrestin response against SRIF-14,[58],2 fold
